Assay results published in US20210198347A1 (Chugai, published 2021).

Assays:
[1] = target: T1, recombinant human C1s CCP1-CCP2-SP-His (human, UniProt P09871 292-688); experiment: SPR (BIACORE T200, 37 degrees C, pH 7.4, 1.2 mM CaCl2), antibody captured by protein A/G
T1 construct: Truncated protein lacking the CUB1-EGF-CUB2 domain; also called human C1s CCP1-CCP2-SP M292-D688
T1 sequence: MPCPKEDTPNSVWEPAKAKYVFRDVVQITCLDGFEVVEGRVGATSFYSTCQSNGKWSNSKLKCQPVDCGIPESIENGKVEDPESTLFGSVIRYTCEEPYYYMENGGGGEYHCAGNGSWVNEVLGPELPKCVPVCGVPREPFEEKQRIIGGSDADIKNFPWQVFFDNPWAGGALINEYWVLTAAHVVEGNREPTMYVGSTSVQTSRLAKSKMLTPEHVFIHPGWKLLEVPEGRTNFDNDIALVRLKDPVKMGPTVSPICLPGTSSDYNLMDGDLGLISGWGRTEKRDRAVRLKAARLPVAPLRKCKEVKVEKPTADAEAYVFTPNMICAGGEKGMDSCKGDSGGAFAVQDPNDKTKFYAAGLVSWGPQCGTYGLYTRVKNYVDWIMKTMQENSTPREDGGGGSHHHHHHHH

[2] = target: T2, Native proenzyme human C1s (Comptech A103) (human, UniProt P09871 16-688); experiment: SPR (BIACORE T200, 37 degrees C, pH 7.4), antibody captured by protein A/G, C1s 50 nM
T2 construct: mature; Bought native protein; also called native human C1s Proenzyme; native human C1s proenzyme protein (CompTech)
T2 sequence (looked up): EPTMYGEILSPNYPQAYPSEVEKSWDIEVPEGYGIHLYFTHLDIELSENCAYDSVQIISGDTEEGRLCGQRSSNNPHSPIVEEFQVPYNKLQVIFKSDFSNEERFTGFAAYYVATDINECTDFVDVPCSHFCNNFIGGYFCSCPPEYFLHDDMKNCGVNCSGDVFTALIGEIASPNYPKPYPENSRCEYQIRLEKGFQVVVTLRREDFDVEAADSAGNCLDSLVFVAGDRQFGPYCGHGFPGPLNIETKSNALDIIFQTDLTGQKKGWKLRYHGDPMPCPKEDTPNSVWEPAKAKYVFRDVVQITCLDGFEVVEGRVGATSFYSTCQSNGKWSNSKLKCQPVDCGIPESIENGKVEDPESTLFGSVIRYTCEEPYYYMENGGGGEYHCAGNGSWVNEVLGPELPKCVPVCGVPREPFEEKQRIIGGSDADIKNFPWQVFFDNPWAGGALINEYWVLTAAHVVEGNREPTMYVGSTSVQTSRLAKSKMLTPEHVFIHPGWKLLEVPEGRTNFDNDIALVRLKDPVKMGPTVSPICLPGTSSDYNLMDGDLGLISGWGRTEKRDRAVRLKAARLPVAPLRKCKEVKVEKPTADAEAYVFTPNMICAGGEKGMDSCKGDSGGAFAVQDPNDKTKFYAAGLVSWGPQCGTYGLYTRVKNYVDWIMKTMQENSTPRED
Procedure: The binding specificities of the six C1s CUB1-EGF-CUB2 binders were determined at 37 degrees C. using BIACORE® T200 instrument (GE Healthcare). Recombinant Protein A/G (Pierce) was immobilized onto all flow cells of a CM4 sensor chip using an amine coupling kit (GE Healthcare). Antibodies and analytes were prepared in 7(+) buffer (20 mM ACES, 150 mM NaCl, 1.2 mM CaCl₂, 0.05% Tween 20, 0.005% NaN₃, pH 7.4). Each antibody was captured onto the sensor surface by protein A/G. Antibody capture levels were aimed at 100 resonance unit (RU). Native proenzyme human C1s (Comptech A103) (at 50 nM as a monomer) or recombinant human C1s CCP1-CCP2-SP-His (at 100 nM as a monomer) was injected, followed by dissociation. Sensor surface was regenerated each cycle with 10 mM Glycine-HCl pH 1.5. The six C1s CUB1-EGF-CUB2 binders bound to the native proenzyme human C1s, but not recombinant human C1s CCP1-CCP2-SP-His, which is a truncated protein lacking the CUB1-EGF-CUB2 domain.

- binding result [1]: no binding (tested: 100 nM)
- binding result [2]: binds
B1: COS0583gg-SG1148 (antibody, human IgG1, kappa, V domains shown)
VH: QSLEESGGRLVTPGTPLTLTCTVSGIDLSSYAMIWVRQAPGKGLEWIGIIYVRGSTYYASWAKDRFTISKTSTTVDLKITSPTTEDTATYFCARAYGGDTFSDGFDPWGPGTLVTVSS
VL: DPVMTQTPSSTSAAVGGTVTINCQSSQNVYGNNRLAWYQQKPGQPPKLLIYLASTLASGVPSRFRGNGSGTQFTLTISGVQCDDAATYYCAGGYRDDTNSFGGGTKVEIKR
notes: Constant regions as for m1; also called COS583; COS583gg(-SG1148)
